The target of the experiment is T1, G1′-19′WT peptide (Escherichia coli, UniProt P13720).
T1 construct: G1′-19′ denotes the 19 C-terminal amino acid residues of PapG; made in house; host or cells: synthetic peptide
Put plainly: Native polyacrylamide gel mobility shift of PapD (wild type and mutants) with G1′-19′WT peptide. The experiment is classed as binding, E. coli. The settings on record: native-PAGE assay. The source says: The ability of the mutant chaperones to bind pilus subunits and modulate pilus assembly in vivo was correlated to their ability to bind to the G1′-19′WT peptide and to PapG in vitro. […] Similarly, mutations in Arg-8 and Lys-112 abolished the ability of PapD to bind to PapG and reconstitute the PapD-PapG complex in vitro (FIG. 7) and to bind to pilus subunits and mediate pilus assembly in vivo (cf. table 2).

Experimental findings from patent US6596504B2, “Treatment of prophylaxis of diseases caused by pilus-forming bacteria” (Washington University, priority 1993, dated 2003) are described below.

B1: wild type PapD: periplasmic chaperone PapD of E. coli, wild type (protein, UniProt P15319 22-239, looked up)
Chaperone protein PapD: AVSLDRTRAVFDGSEKSMTLDISNDNKQLPYLAQAWIENENQEKIITGPVIATPPVQRLEPGAKSMVRLSTTPDISKLPQDRESLFYFNLREIPPRSEKANVLQIALQTKIKLFYRPAAIKTRPNEVWQDQLILNKVSGGYRIENPTPYYVTVIGLGGSEKQAEEGEFETVMLSPRSEQTVKSANYNTPYLSYINDYGGRPVLSFICNGSRCSVKKEK
Regarding B1, the “mobility shift on incubation with G1′-19′WT peptide” value is “cause a mobility shift”.
